As a reminder, the stoichiometry N is a count of units in the complex or per binding partner.

The data set concerns the molecule itself. In words: SEC; gel filtration of the purified protein on Superdex 200 HR 10/30 in 25 mM Tris-HCl pH 8.0, 100 mM NaCl, 0.1 mM EDTA; mass from a calibration plot of standards. In general terms: In gel filtration, larger molecules generally elute earlier.

B1: GalU (UDP-glucose pyrophosphorylase) from Escherichia coli (enzyme, Escherichia coli K-12, UniProt P0AEP3 1-302, looked up)
chain: MAAINTKVKKAVIPVAGLGTRMLPATKAIPKEMLPLVDKPLIQYVVNECIAAGITEIVLVTHSSKNSIENHFDTSFELEAMLEKRVKRQLLDEVQSICPPHVTIMQVRQGLAKGLGHAVLCAHPVVGDEPVAVILPDVILDEYESDLSQDNLAEMIRRFDETGHSQIMVEPVADVTAYGVVDCKGVELAPGESVPMVGVVEKPKADVAPSNLAIVGRYVLSADIWPLLAKTPPGAGDEIQLTDAIDMLIEKETVEAYHMKGKSHDCGNKLGYMQAFVEYGIRHNTLGTEFKAWLEEEMGIKK
notes: GalU, E. coli K-12, gene galU (909 bp) amplified from genomic DNA, codes for 302 amino acids; expressed from pET28c as an untagged protein; also called UDP-Glc PPase; UTP:glucose-1-phosphate uridylyltransferase; source: E. coli BL21 Star (DE3), purified (DEAE-Sepharose)
For the protein B1, the “stoichiometry N” value worked out at 4.

B2: GalU_(K202A) (enzyme, Escherichia coli K-12, UniProt P0AEP3 1-302, looked up)
chain: MAAINTKVKKAVIPVAGLGTRMLPATKAIPKEMLPLVDKPLIQYVVNECIAAGITEIVLVTHSSKNSIENHFDTSFELEAMLEKRVKRQLLDEVQSICPPHVTIMQVRQGLAKGLGHAVLCAHPVVGDEPVAVILPDVILDEYESDLSQDNLAEMIRRFDETGHSQIMVEPVADVTAYGVVDCKGVELAPGESVPMVGVVEAPKADVAPSNLAIVGRYVLSADIWPLLAKTPPGAGDEIQLTDAIDMLIEKETVEAYHMKGKSHDCGNKLGYMQAFVEYGIRHNTLGTEFKAWLEEEMGIKK
notes: GalU, E. coli K-12, 302 amino acids, untagged, with K202A; Mutagenesis on the plasmid of the wild-type enzyme; source: E. coli BL21 Star (DE3), purified (DEAE-Sepharose)
Regarding B2, the “stoichiometry N” value turned out to be 4.

B3: GalU_(T20M/R21H) (enzyme, Escherichia coli K-12, UniProt P0AEP3 1-302, looked up)
chain: MAAINTKVKKAVIPVAGLGMHMLPATKAIPKEMLPLVDKPLIQYVVNECIAAGITEIVLVTHSSKNSIENHFDTSFELEAMLEKRVKRQLLDEVQSICPPHVTIMQVRQGLAKGLGHAVLCAHPVVGDEPVAVILPDVILDEYESDLSQDNLAEMIRRFDETGHSQIMVEPVADVTAYGVVDCKGVELAPGESVPMVGVVEKPKADVAPSNLAIVGRYVLSADIWPLLAKTPPGAGDEIQLTDAIDMLIEKETVEAYHMKGKSHDCGNKLGYMQAFVEYGIRHNTLGTEFKAWLEEEMGIKK
notes: GalU, E. coli K-12, 302 amino acids, untagged, with T20M and R21H; Mutagenesis on the plasmid of the wild-type enzyme; also called GalU T20M/R21H double mutant; source: E. coli BL21 Star (DE3), purified (DEAE-Sepharose)
For B3, the “stoichiometry N” value is 4.

(Values after PMC4643126, “On the Ancestral UDP-Glucose Pyrophosphorylase Activity of GalF from Escherichia coli” (Frontiers in Microbiology, 2015).)
